This note sets out measurements from patent publication US8551717B2, “Method for determining sumoylation” (Medizinische Hochschule Hannover, priority 2008, dated 2013).

For one assay, the target named is T1, U-CDC37 (Homo sapiens, UniProt P63279+Q16543).
T1 construct: expressed in transfected cells; host or cells: HEK293
The experiment in a line: Trans-SUMOylation by U-CDC37. Format: cell-based. Also on record: key: (++), strong TransSUMOylation; (+), TransSUMOylation; (+/−) weak TransSUMOylation; (−) no detectable TransSUMOylation. Conditions: protein 2 construct coexpressed with U-CDC37 and EGFP-SUMO1 in HEK293; western blot; Table 1. The text has this: (§1) To identify new SUMOylation substrates and to study the function of SUMOylation the Ubc9/substrate dimerisation-dependent SUMOylation system (USDDS) was developed which consists of fusions of the SUMOylation substrate and of the SUMO-conjugating enzyme Ubc9 to the chemically activatable heterodimerisation domains FKBP and FRB, respectively, as shown in FIG. 2. When the substrate protein fused to FKBP is coexpressed with Ubc9-FRB, treatment of HEK293 cells with the rapamycin-related dimerizer AP21967 induces SUMOylation of the substrate protein fused to FKBP at its specific SUMOylation site. […] Dependent on an EcoRl site in the coding sequence, seven C-terminal amino acids of the human STAT1a in the STAT1-FKBP/FRB fusion proteins are missing. For the SUMOylation analysis HEK293 (human embryonic kidney cells) cells have been used. HEK293 cells were cultured in Dulbecco's modified Eagle's medium with high glucose, complemented with 10% fetal calf serum, 2 mM L-glutamine, 100 U/ml penicillin and […] streptomycin. […]
(§2) As shown above, the SUMOylation of a protein of interest can be induced by the heterodimerisation with a binding protein fused to Ubc9. […] Therefore the protein pairs were coexpressed with EGFP-SUMO1 in HEK293 cells and after 24h the transfectants were lysed and the protein extracts were analyzed in western blots. […]

Another assay concerns the target T2, p53-U (Homo sapiens, UniProt P04637+P63279).
T2 construct: expressed in transfected cells; host or cells: HEK293
Put plainly: Trans-SUMOylation by p53-U. Format: cell-based. To be noted: western blot. On the technique in general: Immunoblotting shows a protein as a band on a membrane.

The next assay concerns the target T3, JUN-U (Homo sapiens, UniProt P05412+P63279).
T3 construct: expressed in transfected cells; host or cells: HEK293
Put plainly: Trans-SUMOylation by JUN-U. Conditions: protein 2 construct coexpressed with JUN-U and EGFP-SUMO1 in HEK293, western blot. Format: cell-based.

The target of a further assay is T4, U-MK2 (Homo sapiens, UniProt P49137+P63279).
T4 construct: expressed in transfected cells; host or cells: HEK293
T4 sequence (P63279+P49137 fused): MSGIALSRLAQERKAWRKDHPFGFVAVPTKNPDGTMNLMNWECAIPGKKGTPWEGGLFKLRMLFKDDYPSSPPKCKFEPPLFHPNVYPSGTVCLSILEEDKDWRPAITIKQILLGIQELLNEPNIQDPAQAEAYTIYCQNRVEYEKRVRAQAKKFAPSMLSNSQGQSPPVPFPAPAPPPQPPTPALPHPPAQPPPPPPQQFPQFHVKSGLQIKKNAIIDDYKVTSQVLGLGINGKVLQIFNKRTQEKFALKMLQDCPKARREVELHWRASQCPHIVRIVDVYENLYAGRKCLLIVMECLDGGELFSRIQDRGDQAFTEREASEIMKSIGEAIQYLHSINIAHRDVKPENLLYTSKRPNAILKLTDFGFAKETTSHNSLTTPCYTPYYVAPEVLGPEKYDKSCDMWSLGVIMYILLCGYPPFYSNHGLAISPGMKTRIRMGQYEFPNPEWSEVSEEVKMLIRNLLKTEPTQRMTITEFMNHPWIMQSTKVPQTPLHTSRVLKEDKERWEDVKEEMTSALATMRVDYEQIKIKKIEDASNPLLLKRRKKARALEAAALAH
Put plainly: Trans-SUMOylation by U-MK2. The format is cell-based. To be noted: protein 2 construct coexpressed with U-MK2 and EGFP-SUMO1 in HEK293; western blot; Table 2.

In another assay the target is T5, U-MK5 (Homo sapiens, UniProt P63279+Q8IW41).
T5 construct: expressed in transfected cells; host or cells: HEK293
T5 sequence (P63279+Q8IW41 fused): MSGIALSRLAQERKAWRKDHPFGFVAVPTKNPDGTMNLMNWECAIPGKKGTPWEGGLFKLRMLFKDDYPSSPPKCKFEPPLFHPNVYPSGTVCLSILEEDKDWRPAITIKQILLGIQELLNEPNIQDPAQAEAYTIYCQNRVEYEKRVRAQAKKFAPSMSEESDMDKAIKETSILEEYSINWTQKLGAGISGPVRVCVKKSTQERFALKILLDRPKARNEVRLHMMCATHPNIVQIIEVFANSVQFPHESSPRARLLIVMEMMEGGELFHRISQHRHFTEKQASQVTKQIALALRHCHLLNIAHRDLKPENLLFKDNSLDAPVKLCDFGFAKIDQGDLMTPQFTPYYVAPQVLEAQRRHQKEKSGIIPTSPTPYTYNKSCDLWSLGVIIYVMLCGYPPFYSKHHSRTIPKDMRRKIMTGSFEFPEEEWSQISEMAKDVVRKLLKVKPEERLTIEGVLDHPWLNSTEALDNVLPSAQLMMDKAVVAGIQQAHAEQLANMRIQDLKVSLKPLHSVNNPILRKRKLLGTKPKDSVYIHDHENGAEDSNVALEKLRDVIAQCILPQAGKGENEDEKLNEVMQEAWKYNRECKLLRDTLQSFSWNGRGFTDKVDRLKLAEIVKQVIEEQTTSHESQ
The experiment in a line: Trans-SUMOylation by U-MK5. Format: cell-based. Also on record: key: (++), strong TransSUMOylation; (+), TransSUMOylation; (+/−) weak TransSUMOylation; (−) no detectable TransSUMOylation. Conditions: protein 2 construct coexpressed with U-MK5 and EGFP-SUMO1 in HEK293; western blot; Table 2.
Text: as §1, §2

The target in another assay is T6, MK2-U (Homo sapiens, UniProt P49137+P63279).
T6 construct: expressed in transfected cells; host or cells: HEK293
T6 sequence (P49137+P63279 fused): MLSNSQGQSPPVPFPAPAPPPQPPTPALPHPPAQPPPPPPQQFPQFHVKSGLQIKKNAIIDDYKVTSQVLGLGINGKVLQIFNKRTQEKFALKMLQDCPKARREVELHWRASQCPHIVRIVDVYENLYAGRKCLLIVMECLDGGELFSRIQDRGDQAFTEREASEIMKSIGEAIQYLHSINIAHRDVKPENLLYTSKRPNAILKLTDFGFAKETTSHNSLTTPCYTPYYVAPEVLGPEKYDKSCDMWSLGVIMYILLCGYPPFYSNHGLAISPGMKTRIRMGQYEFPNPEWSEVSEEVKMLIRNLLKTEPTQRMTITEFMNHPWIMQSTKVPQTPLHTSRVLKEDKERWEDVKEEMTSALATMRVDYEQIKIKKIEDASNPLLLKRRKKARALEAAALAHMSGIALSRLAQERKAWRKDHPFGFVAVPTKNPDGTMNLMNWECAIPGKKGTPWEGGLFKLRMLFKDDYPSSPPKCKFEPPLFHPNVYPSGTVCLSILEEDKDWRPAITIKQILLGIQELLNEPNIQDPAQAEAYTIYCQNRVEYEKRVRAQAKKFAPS
Put plainly: Trans-SUMOylation by MK2-U. Conditions: protein 2 construct coexpressed with MK2-U and EGFP-SUMO1 in HEK293; western blot; Table 2. The format is cell-based.

A further assay concerns the target T7, U-p38α (Homo sapiens, UniProt P63279+Q16539).
T7 construct: expressed in transfected cells; host or cells: HEK293
The experiment in a line: Trans-SUMOylation by U-p38α. The format is cell-based. Conditions: protein 2 construct coexpressed with U-p38α and EGFP-SUMO1 in HEK293; western blot; Table 2.

The target of the next assay is T8, Ubc9-FKBP (Homo sapiens, UniProt P42345+P63279).
T8 construct: expressed in transfected cells; host or cells: HEK293
T8 sequence (P63279 with tags, fused parts or gaps): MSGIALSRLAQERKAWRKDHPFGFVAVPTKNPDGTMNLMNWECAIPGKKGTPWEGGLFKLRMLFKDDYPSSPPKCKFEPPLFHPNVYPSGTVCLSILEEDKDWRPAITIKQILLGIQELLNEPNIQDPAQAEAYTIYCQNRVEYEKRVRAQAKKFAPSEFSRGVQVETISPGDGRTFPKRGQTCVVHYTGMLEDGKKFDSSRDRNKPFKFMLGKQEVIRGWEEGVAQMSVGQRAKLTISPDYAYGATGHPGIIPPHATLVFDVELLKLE
T8 sequence (P42345 2021-2113 limits assumed): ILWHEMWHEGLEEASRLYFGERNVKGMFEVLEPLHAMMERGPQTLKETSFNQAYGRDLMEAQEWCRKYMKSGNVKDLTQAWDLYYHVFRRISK
The experiment in a line: USDDS specificity for SUMOylation sites (K-to-R mutants), western blot. Format: cell-based. Conditions: HEK293, coexpressed with Ubc9-FKBP and EGFP-SUMO1, stimulated with AP21967 1 μM.

In another assay the test system is STAT1. Put plainly: Interplay of STAT1 Y701 phosphorylation and K703 SUMOylation by USDDS, western blot. Format: cell-based, human. Conditions: HEK293, USDDS with AP21967 1 μM and interferon-β, any stimulation scenario.
The mark [1] stands for this setting: protein 2 construct coexpressed with p53-U and EGFP-SUMO1 in HEK293, Table 2.

T3 sequence (P05412+P63279 fused): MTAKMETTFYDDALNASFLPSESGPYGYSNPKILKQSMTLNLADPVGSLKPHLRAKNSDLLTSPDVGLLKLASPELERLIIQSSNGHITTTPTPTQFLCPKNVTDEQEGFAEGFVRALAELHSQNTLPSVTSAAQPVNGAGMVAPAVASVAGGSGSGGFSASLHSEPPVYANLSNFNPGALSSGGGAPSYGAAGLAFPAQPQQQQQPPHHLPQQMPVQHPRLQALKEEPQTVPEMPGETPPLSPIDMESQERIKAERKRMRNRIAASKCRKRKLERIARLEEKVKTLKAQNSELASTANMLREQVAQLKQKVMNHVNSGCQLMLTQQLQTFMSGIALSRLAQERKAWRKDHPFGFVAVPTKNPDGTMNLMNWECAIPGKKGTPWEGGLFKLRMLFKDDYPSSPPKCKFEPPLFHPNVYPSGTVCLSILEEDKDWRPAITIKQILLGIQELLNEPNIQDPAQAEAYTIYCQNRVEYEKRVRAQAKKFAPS
T1 sequence (P63279+Q16543 fused): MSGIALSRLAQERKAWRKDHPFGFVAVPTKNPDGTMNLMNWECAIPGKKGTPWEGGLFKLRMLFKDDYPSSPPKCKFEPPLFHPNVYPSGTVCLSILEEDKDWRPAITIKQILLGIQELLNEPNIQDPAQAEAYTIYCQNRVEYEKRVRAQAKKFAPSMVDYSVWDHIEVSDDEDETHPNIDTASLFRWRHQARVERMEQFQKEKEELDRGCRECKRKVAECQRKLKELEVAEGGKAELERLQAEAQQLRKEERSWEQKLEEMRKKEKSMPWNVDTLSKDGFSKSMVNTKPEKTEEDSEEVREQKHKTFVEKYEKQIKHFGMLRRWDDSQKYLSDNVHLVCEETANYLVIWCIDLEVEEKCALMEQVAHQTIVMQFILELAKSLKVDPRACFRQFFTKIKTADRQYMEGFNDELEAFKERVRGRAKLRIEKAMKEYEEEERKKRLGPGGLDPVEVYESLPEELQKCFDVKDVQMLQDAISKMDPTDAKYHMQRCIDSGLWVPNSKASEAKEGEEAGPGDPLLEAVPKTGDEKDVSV
T7 sequence (P63279+Q16539 fused): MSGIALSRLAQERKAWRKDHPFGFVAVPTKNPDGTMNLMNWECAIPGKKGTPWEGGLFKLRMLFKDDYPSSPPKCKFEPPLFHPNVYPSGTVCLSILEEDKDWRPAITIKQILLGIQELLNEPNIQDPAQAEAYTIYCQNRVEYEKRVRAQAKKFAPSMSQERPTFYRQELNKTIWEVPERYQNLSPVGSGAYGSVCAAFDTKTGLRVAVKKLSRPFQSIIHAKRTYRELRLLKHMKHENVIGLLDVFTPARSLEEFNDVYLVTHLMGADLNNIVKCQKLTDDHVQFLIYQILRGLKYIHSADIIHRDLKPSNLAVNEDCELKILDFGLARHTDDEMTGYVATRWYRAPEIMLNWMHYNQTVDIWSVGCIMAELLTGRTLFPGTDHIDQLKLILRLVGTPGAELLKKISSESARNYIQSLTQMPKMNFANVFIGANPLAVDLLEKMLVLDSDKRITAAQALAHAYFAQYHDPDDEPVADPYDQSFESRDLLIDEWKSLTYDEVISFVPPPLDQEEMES

B1: GST-CDK4: CDK4 fused to GST tag (protein, UniProt P11802 2-303, looked up)
Cyclin-dependent kinase 4: ATSRYEPVAEIGVGAYGTVYKARDPHSGHFVALKSVRVPNGGGGGGGLPISTVREVALLRRLEAFEHPNVVRLMDVCATSRTDREIKVTLVFEHVDQDLRTYLDKAPPPGLPAETIKDLMRQFLRGLDFLHANCIVHRDLKPENILVTSGGTVKLADFGLARIYSYQMALTPVVVTLWYRAPEVLLQSTYATPVDMWSVGCIFAEMFRRKPLFCGNSEADQLGKIFDLIGLPPEDDWPRDVSLPRGAFPPRGPRPVQSVVPEMEESGAQLLLEMLTFNPHKRISAFRALQHSYLHKDEGNPE
modifications: GST tag
As for B1, the Trans-SUMOylation entry with U-CDC37 is given as “+”; with p53-U (setting [1]) it was “−”.

B2: HA-JNK1: JNK1 fused to HA tag (protein)
chain: MSRSKRDNNFYSVEIGDSTFTVLKRYQNLKPIGSGAQGIVCAAYDAILERNVAIKKLSRPFQNQTHAKRAYRELVLMKCVNHKNIIGLLNVFTPQKSLEEFQDVYIVMELMDANLCQVIQMELDHERMSYLLYQMLCGIKHLHSAGIIHRDLKPSNIVVKSDCTLKILDFGLARTAGTSFMMTPYVVTRYYRAPEVILGMGYKENVDLWSVGCIMGEMVCHKILFPGRDYIDQWNKVIEQLGTPCPEFMKKLQPTVRTYVENRPKYAGYSFEKLFPDVLFPADSEHNKLKASQARDLLSKMLVIDASKRISVDEALQHPYINVWYDPSEAEAPPPKIPDKQLDEREHTIEEWKELIYKEVMDLEERTKNGVIRGQPSPLAQVQQ
modifications: left off: small tags and cut ends
notes: JNK1 fused to HA tag
With B2, the Trans-SUMOylation result is listed as “−” with p53-U (protein 2 construct coexpressed with P53-U (p53-U) and EGFP-SUMO1 in HEK293, Table 1); “−” with JUN-U (Table 1).

B3: GST-DRG1: DRG1 fused to GST tag (protein)
chain: MSSTLAKIAEIEAEMARTQKNKATAHHLGLLKARLAKLRRELITPKGGGGGGPGEGFDVAKTGDARIGFVGFPSVGKSTLLSNLAGVYSEVAAYEFTTLTTVPGVIRYKGAKIQLLDLPGIIEGAKDGKGRGRQVIAVARTCNLILIVLDVLKPLGHKKIIENELEGFGIRLNSKPPNIGFKKKDKGGINLTATCPQSELDAETVKSILAEYKIHNADVTLRSDATADDLIDVVEGNRVYIPCIYVLNKIDQISIEELDIIYKVPHCVPISAHHRWNFDDLLEKIWDYLKLVRIYTKPKGQLPDYTSPVVLPYSRTTVEDFCMKIHKNLIKEFKYALVWGLSVKHNPQKVGKDHTLEDEDVIQIVKK
modifications: left off: a dimerising Fc or GST
notes: DRG1 fused to GST tag
Turning to B3, the Trans-SUMOylation result in the assay with U-MK2, in the assay with U-MK5, with p53-U (setting [1]), in the assay with JUN-U (Table 2), in the assay with MK2-U and with U-p38α was “−” each time.

B4: STAT1K703R-FRB: STAT1 SUMOylation site mutant K703R fused to FRB (protein, UniProt P42224 2-750, looked up, variant K703R)
Signal transducer and …: SQWYELQQLDSKFLEQVHQLYDDSFPMEIRQYLAQWLEKQDWEHAANDVSFATIRFHDLLSQLDDQYSRFSLENNFLLQHNIRKSKRNLQDNFQEDPIQMSMIIYSCLKEERKILENAQRFNQAQSGNIQSTVMLDKQKELDSKVRNVKDKVMCIEHEIKSLEDLQDEYDFKCKTLQNREHETNGVAKSDQKQEQLLLKKMYLMLDNKRKEVVHKIIELLNVTELTQNALINDELVEWKRRQQSACIGGPPNACLDQLQNWFTIVAESLQQVRQQLKKLEELEQKYTYEHDPITKNKQVLWDRTFSLFQQLIQSSFVVERQPCMPTHPQRPLVLKTGVQFTVKLRLLVKLQELNYNLKVKVLFDKDVNERNTVKGFRKFNILGTHTKVMNMEESTNGSLAAEFRHLQLKEQKNAGTRTNEGPLIVTEELHSLSFETQLCQPGLVIDLETTSLPVVVISNVSQLPSGWASILWYNMLVAEPRNLSFFLTPPCARWAQLSEVLSWQFSSVTKRGLNVDQLNMLGEKLLGPNASPDGLIPWTRFCKENINDKNFPFWLWIESILELIKKHLLPLWNDGCIMGFISKERERALLKDQQPGTFLLRFSESSREGAITFTWVERSQNGGEPDFHAVEPYTKKELSAVTFPDIIRNYKVMAAENIPENPLKYLYPNIDKDHAFGKYYSRPKEAPEPMELDGPKGTGYIRTELISVSEVHPSRLQTTDNLLPMSPEEFDEVSRIVGSVEFDSMMNTV
modifications: fused to FRB domain
With B4, the “SUMOylation of mutant fusion protein” value with Ubc9-FKBP was “nearly no SUMOylation”.

B5: STAT1-FRB: human STAT1a fused to FRB (T2098L) heterodimerisation domain (protein)
chain: MSQWYELQQLDSKFLEQVHQLYDDSFPMEIRQYLAQWLEKQDWEHAANDVSFATIRFHDLLSQLDDQYSRFSLENNFLLQHNIRKSKRNLQDNFQEDPIQMSMIIYSCLKEERKILENAQRFNQAQSGNIQSTVMLDKQKELDSKVRNVKDKVMCIEHEIKSLEDLQDEYDFKCKTLQNREHETNGVAKSDQKQEQLLLKKMYLMLDNKRKEVVHKIIELLNVTELTQNALINDELVEWKRRQQSACIGGPPNACLDQLQNWFTIVAESLQQVRQQLKKLEELEQKYTYEHDPITKNKQVLWDRTFSLFQQLIQSSFVVERQPCMPTHPQRPLVLKTGVQFTVKLRLLVKLQELNYNLKVKVLFDKDVNERNTVKGFRKFNILGTHTKVMNMEESTNGSLAAEFRHLQLKEQKNAGTRTNEGPLIVTEELHSLSFETQLCQPGLVIDLETTSLPVVVISNVSQLPSGWASILWYNMLVAEPRNLSFFLTPPCARWAQLSEVLSWQFSSVTKRGLNVDQLNMLGEKLLGPNASPDGLIPWTRFCKENINDKNFPFWLWIESILELIKKHLLPLWNDGCIMGFISKERERALLKDQQPGTFLLRFSESSREGAITFTWVERSQNGGEPDFHAVEPYTKKELSAVTFPDIIRNYKVMAAENIPENPLKYLYPNIDKDHAFGKYYSRPKEAPEPMELDGPKGTGYIKTELISVSEVHPSRLQTTDNLLPMSPEEFDEVSRIVGSVEFILWHEMWHEGLEEASRLYFGERNVKGMFEVLEPLHAMMERGPQTLKETSFNQAYGRDLMEAQEWCRKYMKSGNVKDLLQAWDLYYHVFRRISK
With B5, the “double modification of STAT1 by SUMOylation and Y701 phosphorylation” value in the assay on STAT1 is recorded as “no double modification”.
